In paper PMC5386376, “Structural insight into an evolutionarily ancient programmed cell death regulator – the crystal structure of marine sponge BHP2 bound to LB-Bak-2” (Cell Death & Disease, 2017):

T1: BHP2 (pro-survival Bcl-2 homolog from Geodia cydonium), residues 18-200 (Geodia cydonium, UniProt Q967D2 18-200)
T1 construct: BHP2, Geodia cydonium, Uniprot Q967D2, residues 18-200; codon-optimized synthetic cDNA; also called recombinant BHP2; source: E. coli BL21 (DE3) star, purified (Glutathione Sepharose 4B, HRV 3C protease cleavage on column, Superdex S200 SEC)
T1 sequence (looked up): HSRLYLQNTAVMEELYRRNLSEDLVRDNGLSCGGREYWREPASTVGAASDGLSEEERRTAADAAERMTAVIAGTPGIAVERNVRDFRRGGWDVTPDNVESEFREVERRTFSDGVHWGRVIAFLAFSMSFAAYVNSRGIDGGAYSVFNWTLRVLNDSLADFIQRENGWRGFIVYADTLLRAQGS

B1: LB-Bak-2 BH3 peptide (residues 62-89) (peptide, UniProt Q1RPT5 62-89, looked up)
peptide: ALASSMASEVGRRLAEFGDQVDGQFYQE
notes: LB-Bak-2, Lubomirskia baicalensis, Uniprot Q1RPT5, BH3 motif, residues 62-89; also called LB-Bak-2 BH3 motif; LB-Bak-2 BH3 domain; source: synthetic peptide (GenScript), purified to 95%
B2: human Hrk BH3 peptide (peptide)
chain: not shown

Molecular target: T1, BHP2 (pro-survival Bcl-2 homolog from …)
Test: ITC; BH3 peptide (200 μM) titrated into BHP2 (20 μM), 19 injections of 2.0 μl, MicroCal iTC200, 25 °C, 25 mM HEPES pH 7.5, 150 mM NaCl; triplicate
Conditions: both partners purified

| Binder | Kd |
| --- | --- |
| B1 | 0.065 µM |
| B2 | 3.76 µM |
